Data: article PMC4597100

Key:
[1] = molecular target: MLL1(3745–3969) SET domain construct containing the WIN motif, AviTag, biotinylated (human) (UniProt Q03164)
[2] = molecular target: MLL4(5308–5537) SET domain construct containing the WIN motif, AviTag, biotinylated (human) (UniProt O14686)

Sequence of UniProt Q03164 (Q03164 3745-3969): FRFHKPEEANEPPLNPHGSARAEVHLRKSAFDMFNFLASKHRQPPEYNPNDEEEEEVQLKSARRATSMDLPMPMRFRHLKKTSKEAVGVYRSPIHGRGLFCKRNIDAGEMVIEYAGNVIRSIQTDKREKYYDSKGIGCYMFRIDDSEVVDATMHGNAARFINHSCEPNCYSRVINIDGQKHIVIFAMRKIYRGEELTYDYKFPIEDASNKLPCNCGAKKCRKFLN

KM (H3 peptide) of methyltransferase activity without WRAD, saturating SAM [1]: 430 µM
KM (H3 peptide) of methyltransferase activity without WRAD, saturating SAM [2]: 251 µM
Binder: ARTKQTARKSTGGKAPRY [histone H3 amino terminal peptide substrate (…-Y), unmodified]
